Reference: article PMC9482650, “Quantitative fragmentomics allow affinity mapping of interactomes” (Nature Communications, 2022)
One block for each binder: values may come before it.

How the values were obtained:
Test in all cases: holdup assay
Set-up in all cases: key: below the threshold = too weak to quantify, mostly under pKd 3.1 to 4
FRMPD2_2, Q68DX3 = target: FRMPD2_2, Q68DX3
HTRA1, Q92743 = target: HTRA1, Q92743
LIN7C, Q9NUP9 = target: T1, LIN7C, Q9NUP9
T1 sequence (Q9NUP9 88-185, limits assumed, looked up): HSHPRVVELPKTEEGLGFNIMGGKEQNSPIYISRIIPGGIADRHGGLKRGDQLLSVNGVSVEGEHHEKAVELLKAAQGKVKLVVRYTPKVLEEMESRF

DLG4_2, P78352 = target: DLG4_2, P78352
SNTG1, Q9NSN8 = target: T2, SNTG1, Q9NSN8
T2 sequence (Q9NSN8 52-150, limits assumed, looked up): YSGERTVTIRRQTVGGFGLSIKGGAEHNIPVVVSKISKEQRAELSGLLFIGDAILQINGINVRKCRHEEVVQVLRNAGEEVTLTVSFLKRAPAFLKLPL

PARD3_3, Q8TEW0 = target: PARD3_3, Q8TEW0
Inadl_8, Q8NI35 = target: Inadl_8, Q8NI35
TIAM2, Q8IVF5 = target: T3, TIAM2, Q8IVF5
T3 sequence (Q8IVF5 885-986, limits assumed, looked up): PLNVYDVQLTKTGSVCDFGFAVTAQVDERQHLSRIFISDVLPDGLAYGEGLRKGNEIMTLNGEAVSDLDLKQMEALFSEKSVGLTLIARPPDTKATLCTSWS

LIMK2, P53671 = target: LIMK2, P53671
GRIP2_3, Q9C0E4 = target: GRIP2_3, Q9C0E4
DLG1_3, Q12959 = target: DLG1_3, Q12959
Inadl_2, Q8NI35 = target: Inadl_2, Q8NI35
ARHGEF11, O15085 = target: T4, ARHGEF11, O15085
T4 sequence (O15085 42-136, limits assumed, looked up): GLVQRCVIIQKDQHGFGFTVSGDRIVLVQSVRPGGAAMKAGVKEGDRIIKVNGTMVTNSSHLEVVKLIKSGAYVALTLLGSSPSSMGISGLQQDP

DFNB31_3, Q9P202 = target: T5, DFNB31_3, Q9P202
T5 sequence (Q9P202 811-907, limits assumed, looked up): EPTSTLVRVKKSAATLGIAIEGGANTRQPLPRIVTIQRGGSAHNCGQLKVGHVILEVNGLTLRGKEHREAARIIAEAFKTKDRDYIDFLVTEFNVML

RHPN1, Q8TCX5 = target: T6, RHPN1, Q8TCX5
T6 sequence (Q8TCX5 508-602, limits assumed, looked up): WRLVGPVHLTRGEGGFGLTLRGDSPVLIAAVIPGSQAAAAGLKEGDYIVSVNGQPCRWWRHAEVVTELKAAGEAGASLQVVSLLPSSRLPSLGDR

GRIP2_4, Q9C0E4 = target: GRIP2_4, Q9C0E4
DLG1_1, Q12959 = target: DLG1_1, Q12959
SNTG2, Q9NY99 = target: T7, SNTG2, Q9NY99
T7 sequence (Q9NY99 68-166, limits assumed, looked up): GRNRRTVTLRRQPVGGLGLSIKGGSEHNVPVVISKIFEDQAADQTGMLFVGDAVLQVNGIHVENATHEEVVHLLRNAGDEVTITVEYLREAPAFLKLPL

DLG2_2, Q15700 = target: DLG2_2, Q15700
PDZRN4_1, Q6ZMN7 = target: PDZRN4_1, Q6ZMN7
IL16_1, Q14005 = target: IL16_1, Q14005
GRIP1_3, Q9Y3R0 = target: T8, GRIP1_3, Q9Y3R0
T8 sequence (Q9Y3R0 247-346, limits assumed, looked up): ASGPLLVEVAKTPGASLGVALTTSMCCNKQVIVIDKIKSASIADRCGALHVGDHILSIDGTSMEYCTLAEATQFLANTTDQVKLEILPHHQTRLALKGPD

DFNB31_1, Q9P202 = target: T9, DFNB31_1, Q9P202
T9 sequence (Q9P202 135-233, limits assumed, looked up): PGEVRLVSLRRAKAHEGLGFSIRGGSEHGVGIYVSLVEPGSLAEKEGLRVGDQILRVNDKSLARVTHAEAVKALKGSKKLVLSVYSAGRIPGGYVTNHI

MAGI2_3, Q86UL8 = target: MAGI2_3, Q86UL8
DVL3, Q92997 = target: T10, DVL3, Q92997
T10 sequence (Q92997 244-331, limits assumed, looked up): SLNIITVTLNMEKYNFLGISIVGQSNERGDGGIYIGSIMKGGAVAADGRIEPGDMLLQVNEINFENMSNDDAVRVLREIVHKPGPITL

RAPGEF6, Q8TEU7 = target: T11, RAPGEF6, Q8TEU7
T11 sequence (Q8TEU7 525-625, limits assumed, looked up): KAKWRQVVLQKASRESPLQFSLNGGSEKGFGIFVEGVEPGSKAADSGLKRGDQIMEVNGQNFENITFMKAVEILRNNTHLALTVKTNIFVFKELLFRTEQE

DLG5_1, Q8TDM6 = target: DLG5_1, Q8TDM6
[1] = plain residues with an end cap or a label only (N-terminal biotin on a linker: ahx)
[2] = plain residues with an end cap or a label only (N-terminal biotin on a linker: ttds)

Sequence of DLG2_2, Q15700 (Q15700 189-283): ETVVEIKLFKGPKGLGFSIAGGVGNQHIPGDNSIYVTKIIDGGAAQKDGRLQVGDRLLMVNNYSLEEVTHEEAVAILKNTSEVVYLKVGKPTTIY
Sequence of IL16_1, Q14005 (Q14005 210-306): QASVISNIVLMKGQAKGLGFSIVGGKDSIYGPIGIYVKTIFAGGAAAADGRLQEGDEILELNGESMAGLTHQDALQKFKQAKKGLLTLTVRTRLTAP
Sequence of GRIP2_3, Q9C0E4 (Q9C0E4 238-339): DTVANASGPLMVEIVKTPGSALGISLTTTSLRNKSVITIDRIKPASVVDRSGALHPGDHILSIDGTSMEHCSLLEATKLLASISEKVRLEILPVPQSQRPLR
Sequence of LIMK2, P53671 (P53671 143-248): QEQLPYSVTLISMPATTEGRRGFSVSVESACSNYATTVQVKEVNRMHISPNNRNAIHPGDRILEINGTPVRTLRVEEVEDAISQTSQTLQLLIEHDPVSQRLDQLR
Sequence of GRIP2_4, Q9C0E4 (Q9C0E4 446-548): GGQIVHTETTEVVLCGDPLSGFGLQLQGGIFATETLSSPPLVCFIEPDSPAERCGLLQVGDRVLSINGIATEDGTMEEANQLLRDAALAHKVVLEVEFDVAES
Sequence of HTRA1, Q92743 (Q92743 360-477): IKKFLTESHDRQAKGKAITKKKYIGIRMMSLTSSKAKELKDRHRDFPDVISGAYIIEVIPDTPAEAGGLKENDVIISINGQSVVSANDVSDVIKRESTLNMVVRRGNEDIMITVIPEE
Sequence of PDZRN4_1, Q6ZMN7 (Q6ZMN7 213-318): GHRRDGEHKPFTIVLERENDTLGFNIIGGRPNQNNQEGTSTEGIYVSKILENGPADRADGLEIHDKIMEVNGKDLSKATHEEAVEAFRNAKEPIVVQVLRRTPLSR
Sequence of DLG5_1, Q8TDM6 (Q8TDM6 617-713): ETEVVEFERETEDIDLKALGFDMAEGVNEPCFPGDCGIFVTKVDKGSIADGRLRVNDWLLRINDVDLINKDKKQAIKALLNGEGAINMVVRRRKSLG
Sequence of DLG4_2, P78352 (P78352 155-259): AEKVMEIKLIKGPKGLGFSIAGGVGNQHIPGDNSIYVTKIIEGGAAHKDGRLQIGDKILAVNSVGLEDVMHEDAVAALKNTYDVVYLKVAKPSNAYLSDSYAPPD
Sequence of MAGI2_3, Q86UL8 (Q86UL8 600-682): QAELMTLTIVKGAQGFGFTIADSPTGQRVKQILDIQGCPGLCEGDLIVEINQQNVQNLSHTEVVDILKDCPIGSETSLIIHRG
Sequence of Inadl_2, Q8NI35 (Q8NI35 238-335): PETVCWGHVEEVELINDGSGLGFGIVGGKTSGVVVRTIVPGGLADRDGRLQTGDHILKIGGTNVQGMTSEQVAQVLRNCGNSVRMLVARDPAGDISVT
Sequence of Inadl_8, Q8NI35 (Q8NI35 1425-1530): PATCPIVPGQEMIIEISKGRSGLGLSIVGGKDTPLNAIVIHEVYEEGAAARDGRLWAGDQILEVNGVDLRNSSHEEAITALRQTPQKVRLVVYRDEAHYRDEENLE
Sequence of FRMPD2_2, Q68DX3 (Q68DX3 944-1038): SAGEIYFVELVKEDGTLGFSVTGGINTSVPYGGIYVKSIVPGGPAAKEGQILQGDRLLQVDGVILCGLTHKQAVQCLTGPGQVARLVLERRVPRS
Sequence of PARD3_3, Q8TEW0 (Q8TEW0 582-685): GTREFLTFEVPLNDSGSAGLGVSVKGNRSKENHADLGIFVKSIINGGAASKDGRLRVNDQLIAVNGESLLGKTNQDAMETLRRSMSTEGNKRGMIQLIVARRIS

pKd (FRMPD2_2, Q68DX3; [1]): 3.99
pKd (HTRA1, Q92743; [1]): 4.04
pKd (LIN7C, Q9NUP9; [1]): below the threshold
pKd (DLG4_2, P78352; [1]): 4.39
pKd (SNTG1, Q9NSN8; [1]): 3.94
pKd (PARD3_3, Q8TEW0; [1]): below the threshold
pKd (Inadl_8, Q8NI35; [1]): 3.64
pKd (TIAM2, Q8IVF5; [1]): below the threshold
pKd (LIMK2, P53671; [1]): below the threshold
pKd (GRIP2_3, Q9C0E4; [1]): below the threshold
pKd (DLG1_3, Q12959; [1]): below the threshold
pKd (Inadl_2, Q8NI35; [1]): below the threshold
pKd (ARHGEF11, O15085; [1]): 4.51
pKd (DFNB31_3, Q9P202; [1]): below the threshold
pKd (RHPN1, Q8TCX5; [1]): 3.95
pKd (GRIP2_4, Q9C0E4; [1]): below the threshold
pKd (DLG1_1, Q12959; [1]): 3.72
pKd (SNTG2, Q9NY99; [1]): below the threshold
pKd (DLG2_2, Q15700; [1]): 3.62
pKd (PDZRN4_1, Q6ZMN7; [1]): below the threshold
pKd (IL16_1, Q14005; [1]): 3.47
pKd (GRIP1_3, Q9Y3R0; [1]): below the threshold
pKd (DFNB31_1, Q9P202; [1]): below the threshold
pKd (MAGI2_3, Q86UL8; [1]): below the threshold
pKd (DVL3, Q92997; [1]): below the threshold
pKd (RAPGEF6, Q8TEU7; [1]): below the threshold
pKd (DLG5_1, Q8TDM6; [1]): below the threshold
B1: DLL1, O00548 (peptide)
chain: KDECVIATEV

pKd (FRMPD2_2, Q68DX3; [2]): below the threshold
pKd (HTRA1, Q92743; [2]): below the threshold
pKd (LIN7C, Q9NUP9; [2]): below the threshold
pKd (DLG4_2, P78352; [2]): 4.45
pKd (SNTG1, Q9NSN8; [2]): below the threshold
pKd (PARD3_3, Q8TEW0; [2]): below the threshold
pKd (Inadl_8, Q8NI35; [2]): below the threshold
pKd (TIAM2, Q8IVF5; [2]): below the threshold
pKd (LIMK2, P53671; [2]): below the threshold
pKd (GRIP2_3, Q9C0E4; [2]): below the threshold
pKd (DLG1_3, Q12959; [2]): 3.95
pKd (Inadl_2, Q8NI35; [2]): below the threshold
pKd (ARHGEF11, O15085; [2]): 3.48
pKd (DFNB31_3, Q9P202; [2]): below the threshold
pKd (RHPN1, Q8TCX5; [2]): below the threshold
pKd (GRIP2_4, Q9C0E4; [2]): below the threshold
pKd (DLG1_1, Q12959; [2]): 4.08
pKd (SNTG2, Q9NY99; [2]): 4.18
pKd (DLG2_2, Q15700; [2]): 4.25
pKd (PDZRN4_1, Q6ZMN7; [2]): 4.71
pKd (IL16_1, Q14005; [2]): below the threshold
pKd (GRIP1_3, Q9Y3R0; [2]): below the threshold
pKd (DFNB31_1, Q9P202; [2]): 3.95
pKd (MAGI2_3, Q86UL8; [2]): below the threshold
pKd (DVL3, Q92997; [2]): below the threshold
pKd (RAPGEF6, Q8TEU7; [2]): below the threshold
pKd (DLG5_1, Q8TDM6; [2]): below the threshold
B2: MAPK12, P53778 (peptide)
chain: GARVSKETPL

pKd (FRMPD2_2, Q68DX3; [2]): below the threshold
pKd (HTRA1, Q92743; [2]): below the threshold
pKd (LIN7C, Q9NUP9; [2]): below the threshold
pKd (DLG4_2, P78352; [2]): 4.42
pKd (SNTG1, Q9NSN8; [2]): 3.71
pKd (PARD3_3, Q8TEW0; [2]): below the threshold
pKd (Inadl_8, Q8NI35; [2]): 4.89
pKd (TIAM2, Q8IVF5; [2]): below the threshold
pKd (LIMK2, P53671; [2]): below the threshold
pKd (GRIP2_3, Q9C0E4; [2]): below the threshold
pKd (DLG1_3, Q12959; [2]): below the threshold
pKd (Inadl_2, Q8NI35; [2]): below the threshold
pKd (ARHGEF11, O15085; [2]): 3.56
pKd (DFNB31_3, Q9P202; [2]): below the threshold
pKd (RHPN1, Q8TCX5; [2]): below the threshold
pKd (GRIP2_4, Q9C0E4; [2]): below the threshold
pKd (DLG1_1, Q12959; [2]): 3.89
pKd (SNTG2, Q9NY99; [2]): below the threshold
pKd (DLG2_2, Q15700; [2]): 3.89
pKd (PDZRN4_1, Q6ZMN7; [2]): 3.49
pKd (IL16_1, Q14005; [2]): 3.86
pKd (GRIP1_3, Q9Y3R0; [2]): below the threshold
pKd (DFNB31_1, Q9P202; [2]): below the threshold
pKd (MAGI2_3, Q86UL8; [2]): below the threshold
pKd (DVL3, Q92997; [2]): below the threshold
pKd (RAPGEF6, Q8TEU7; [2]): below the threshold
pKd (DLG5_1, Q8TDM6; [2]): below the threshold
B3: GDA, Q9Y2T3 (peptide)
chain: KQVVPFSSSV
